Experiment: yeast display, Sf9 membrane polyspecificity reagent, FACS + sequencing; frameworks hold sequencing errors
Method in brief: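 A nanobody's polyreactivity label depends on the gate it was sorted from. Yeast display cells were stained with 10% biotinylated, detergent-solubilized Sf9 membrane reagent for 1 hour at 4 °C, enriched on streptavidin microbeads and sorted by FACS. The low and high (top ~1%) gates were set on anti-HA fluorescence for expression and streptavidin fluorescence for reagent binding.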

Row | Sequence | polyreactivity (PSR sort gate)
1 | QVQLVESGGGLVQAGGSLRLSCAASGRTFAYNAMGWYRQAPGKERELVAAISRSGTITYYADSVKGRFTISRDNAKNTVYLQMNSLKPEDTAVYYCNKASTYPSYDYWGQGTQVTVSS | high polyreactivity
2 | QVQLVESGGGLVQAGGSLRLSCAASGRTVSGYSMGWYIQAPGKERELVARITSGYSTNYADSVKWRFTISRDNAKNTVYLQMNCMKPEDTAVYYCAADRVWAFWTYGYWGQGTQVTVSS | low polyreactivity
3 | QVQLVESGGGLVQAGGSLRLSCAASGSTSPYYDRGWSRQAPGKERELVAAITSGGSTNYADSVKGRFTISRDYAKNSVYLQMNSLKPEDTAVYYCATDWSDDLWTWYYYWGQGTQVTVSS | high polyreactivity
4 | QVQLVESGGGLVQAGGSLRLSCAASGRTFRKYAMGWYRQAPGKERELVAALSWYGGSTYYANSVKGRFTISRDNAKNTVYLQMNSLKPEDTAVYYCAAVPVHTGSLYWGFTTCYDYWGQGTQVTVSS | low polyreactivity
5 | QVQLVESGGGLVQAGGSLRLSCAASGSTLYSNAMGWYRQAPGKERELVATIDWSGGRTYYADSVKGRFTISRDNAKNTVYLQMNSLKPEDTAVYYCAARQSRDFRYRGFYYWGQGTQVTVSS | high polyreactivity
6 | QVQLVESGGGLVQAGGSLRLSCAASGRTFFHYAMGWSRQAPGKERELVAGISSGGRTKYADSVKGRFTISRDNAKNTVYLQMNSLKPEDTAVYYCAASYIVWLTRGAPRKRFDYWGQGTQVTVSS | high polyreactivity
7 | QVQLVESGGGLVQAGGSLRLSCAASGSTFQTYAMGWYRQAPGKERELVASISYGVTTYYADSVKGRFTISRDNAKNTVYLQMNSLKPEDTAVYYCAREGYKWVYLSYGYWGQGTQVTVSS | low polyreactivity
8 | QVQLVESGGGLVQAGGSLRLSCAASGSIFDVYGMGWYRQAPGKEREFVADITSRGTRTYYADSVKGRFTISRDNAKNTVYLQMNSLKPEDTAVYYCNTLVGVDFWLVDYWGQGTQVTLSS | low polyreactivity
9 | QVQLVESGGGLVQAGGSLRLSCAASGRTFTPYTRGWYRQAPGKEREFVPAIRTGGNTYYADSVKGRFTISRDNAKNTVYLQMNSLKPEDTAVYYCAARDRIGYRLYYWGQGTQVTVSS | high polyreactivity
10 | QVQLVESGGGLVQAGGSRRLSCAASGRIFRIYAMGWYRQAPGKERELVAAITWSGGSTYYADSVKGRFPISRDNAKNTVYLQMNSLKPEDTAVYYGAAKARSNKYNYWGQGTQVTVSS | high polyreactivity
11 | QVQLVESGGGLVQAGGSLRLSCAASGIIFRGYAMGWDRQAPGKERELVARISITGGRTYYADSVKGRFTLSRDNAKNTVYLQMNSLKPEDTAVYYCAAGKYVRTVRYDYWGQGPQVTVSS | high polyreactivity
12 | QVQLVESRGGLVQAGGSLRLSCAASGRTFGRNTMGWYRQAPGKERELVAAISISGTSTYYADSVKGRFTISRDNAKNTVSLQMNSLKPEDTAVYDCAARYIRGSYGMGYWGQGTQVTVSS | high polyreactivity
13 | QVQLVESGGGLVQAGGSLRLSCAASGRTFSQYAMGWYRQAPRKERELVAAISWGGRTYYADSVKGRFTISRDNAKNTVYLQMNSLKPEDTAVYYCAASSKLTYYEENHWGQGTQVTVSS | high polyreactivity
14 | QVQLVESGGGLVQAGGSLRLSCAASGSIFDVYTMGWYRQAPGKERELVAAINTGGGSTYYADSVKGRFTISRDNAKNTVYLQMNSLKPEDTAVYFCAASVYHYGPLYYWGQGTQVTVSS | low polyreactivity
15 | QVQLVESGGGLVQAGGSLRLSCAASGFTIYRYAMGWYRQAPGKERELVAAITGGGGSTYYADSVKGRFTISRDNAKNTVYLQMNSLKPEVTAVYYCAVDVYHKGQYRWSYGYWGQGTQVTVSS | low polyreactivity
16 | QVQLVESGGGLVQAGGSLRLSCAASGSTFDSNVIGWYRQAPGKERELVAAITWSGGSTYYADSVKGRFTISRDNAKNTVYLQMNSLKPEDTAVYYCAARHYPRYGNRRMYYWGQGTQVTVSS | high polyreactivity
17 | QVQLVESGGGLVQAGGSLRLSCAASGSTFVDNAMGWYRQAPGKEREFVAAIDWSGGSTFYADSVKGRFTISRDNAKNTVYLQMNSLKPEDTAVYYCAAYPQAYIADYDYWGQGTQVTVSS | low polyreactivity
18 | QVQLVESGGGLVQAGGSLRLSCAASGRIFNRYAMGWYRQAPGKERELVAAITSGGDTNYADSVKGRFTISRDNAKNTVYLQMNSLKPEDTAVYYCNARSRGRASGYDYWGQGTQVTVSS | high polyreactivity
19 | QVQLVESGGGLVQAGGSLRLICAASGRTFTRYAMGWYRQAAGKERELVAAITSTGSTYYADSVKGRFTISRDNAKNTVYLQMNSLKPEDTAVYYCNKVGIRYYYGYDYWGQGTQVTVSS | high polyreactivity
20 | QVQLVESGGGLVQAGGSLRLSCAASGSTYTNAMGWYRPAPGKERELVAAITWSGGTTYYADSVKGRLTISRDNAKNTVYLQMNSLKPEDTAVYYCAAEYRWYSRYFNYWGQGTQVTVSS | high polyreactivity
21 | QVQLVESGGGLVQAGGSLRLSCAASGRIFYGYAMGWYRQAPGKEWELVAAITDSGGITYYADSVKGRFTISRDNAKKTVYLQLNSLKPEDTAVYYCTALVRDPAWLSRVGYSGDYWGQGTQVTVSS | high polyreactivity
22 | QVQLVESGGGLVPAGGSLRLSCAASGLTFGRYAMRSYRQAPGKEREMVARISRSGGRTYYADSVKGRFTISRDNAKNTVYLQMNSLKPEDTAVYYCAATGSYYGGDHDYWGQGTQVTVSS | high polyreactivity

Row | Sequence | polyreactivity (PSR sort gate)
23 | QVQLVESGGGLVQAGGSLRLSCAASGSIFYPYAMGWYRQAPGKERELVAVINDTGSTYYADSVKGRFTISRDNAKNTVYLQMNSLKPEETAVYYCNTATYVDSFPDPGDHWGQGTQVTVSS | low polyreactivity
24 | QVQLVESGGGLVQAGGSLRLSCAASGSTLNRNAMGWYRQAPGKERDLVAAIRVSGGSTYYADSVKGRFTISRDNAKNTVYLQMNSLKPEDTAVYYCATRYVRARWYGYWGQGTQVTVSS | high polyreactivity
25 | QVQLVESAGGLVQAGGSLRLSCAASGSIFYRYVMGWYRQAPGKERELVAAITSDGSTNYADSVKGRFTISRDNAKNTVYLQMNSLKPEDSAVYYCNARSYRGRFDYWGLGTQVTVSS | low polyreactivity
26 | QVQLVESGGGLVQAGGSLRLSCAASGSILTINAMGWYRQAPGKERELVARITISSGSTYYADSVKGRFTISRDNAKNTVYLQMNSLKPEDTAVYYCATDGRSNYYWGDYWGQGTQVTVSS | low polyreactivity
27 | QVQLVESGGGLVQAGGILRLSCASSRFTFTWYAMGWYRPAPGKERELVAAISLSGDRTYYADSVKGRFTISRDNAKNTVYLQMNSLKPEDTAVYYCVFAFEYYYWGQGTQVTVSS | low polyreactivity
28 | QVQLVESGGGLVQAGGSLRLSCAASGSTFSFNAMGWYRQAPGKERELVAAITGGDGTNYADSVKGRFTISRDNAKNTVYLQMNILKPEDTAVYYCAAYQWGSTEDYWFTYGYWGQGTQVTVSS | low polyreactivity
29 | QVQLQESGGGLVQAGGSLRLSSAASGPISRRSTMGWYRQAPGKERELVTAITRGTNTNYADSVKGRFTISRDNAMNTEYLQMNSLKPEDTAVYYCAAYGVLKPSRGDAVFHRYWGQGTQVTVSS | low polyreactivity
30 | QVQLVESGGGLVQAGGSLRLSCAASGSTSVVNARGWSRPAPGKERELVAAISTGGASTYYADSVKGRYTISRDNAKNTVYLQMNSLKPEDTAVYYCAADLGYEYDYWGQCTQVTVSS | high polyreactivity
31 | QVQLVESGGGLVQAGGSLRLSCAASGITFYIYAMGCYRHAPGKERELVAAISSTGGSTYYADSVKGSFTISRDNAKNTVYLQMNSLKPEDNAVYYCNAVFRGTGDYWGQGTQVTVSS | high polyreactivity
32 | QVQLVESGGGFDQARCSLRLSCPACASILREYAMGWYRQAPGKERELVATISRDGSTNYADSVKGRFTISRDNAKNTVYLQMNSLKPEDTAVYYCNTDLTYPYPNVEVLVYGFKLDYWGQGTQVTVSS | low polyreactivity
33 | QVQLVESGGGLVQAGGSLRLSCAASGSTFGGNAMGWYRQAPGKERELVAAISRSGTTTYYADSVKGRFTISRDNAKNTVYLQMNSLKPEDTAVYYCAADYVRSQYDYWGQGTQVTVSS | high polyreactivity
34 | QVQLVESGGGLVQAGGSLRLSCAASGITFPRYAMGWYRLAPGKERELVATITRSGGGTYYADSVKGRFTISRDNAKNTVYLQMKSLKPEDTAVYYCAAGALQRGVYGYGYWGQGTEVTVSS | high polyreactivity
35 | QVQLVESGGGLVQAGGSLRLSCAASGRIFYGNTMGWYRQAPGQERELVATITRSGGSTYYADSVKGRFTISRDNAKNTVYLQMNNLKPEDTAVYYCAVGYWRLFPYGYWGQGTQVTVSS | high polyreactivity
36 | QVQLVESGGGLVQEGGSLRLSCGASGSIFSCYAMGWYRQAPGKERELVAGITWSGGSTYYADSVKGRFTNSRDNAKNTVYLQMNSLKPEDTSVYYCAAKYYWYYSDSGIPLFDYWGQGTQVTVSS | low polyreactivity
37 | QVQLVESGGGLVQAGGSLRLSCAASGRTFGGYALGWYRQAPGKERELVAAISSGGGTYADSVKGRFTISRDNAKNTVYIQMNSLKPEDTAVYYCAAGYRWYWASKPTVHYYYWGPGTQVTVSS | high polyreactivity
38 | QVQLVESCGGLDQAGGSLRLSCAASALTFVDNAMGWYRQAPGKERELVAAISYNGGSTYYADSVKGRFTISRDNAKNTVYLQMNCLKPEDTAVYYCAADISVGRYGDMDYWGQGTLVTVSS | low polyreactivity
39 | QVQLVESGGGLVQAGGSLRLSCAASGSIFEYYVMGWYRQAPGKERELVAAISYSGDSTYYADSVKGRFTISRDNAKNTVYLQMNSLKPEDTAVYYCAAQYTRVIPPGYDYWGQGTQVTVSS | high polyreactivity
40 | QVQLVESGGGLVQAGGSLRLSCAPSGSTFSHNAMGWYRQAPGKEREFVAAISWSGGGTYADSVKGRFTISRDYAKNTVYLQMNSLKPEDTAVYYCNKVSYRSSSSSWFDYWGQGTQVTVSS | low polyreactivity
41 | QVQLVESGGGLVQAGGSLRLSCAASGNTFTFNAMGWYRQAPGKERELVAAINRGDSTNYADSVKGRFTISRDNAKNTVYLQMNSLKPEDTAVYYCAAGTLYWNYNRYDLYYYWGQGTQVTVSS | high polyreactivity
42 | QVQLVESGGGLVQAGGSLRLSCAASGRTFAWYTMGWYRKAPGKERELVAAISGSGGSTYYADSVKGRFTISRDNAKNTVYLQMNSLKPEDSAVYYCARRVDSYYGHTRYYYWGQGTQITVSS | high polyreactivity
43 | QVQLVESRGGLVQAGGSLRLSCAATGSIFNNYDMGWYRQAPGKERELVADISRGGDTNYADSVKGRFTISRDNAKYTVYLQMTSLNPVDTAVYYCNATYWILDSPWRRETFDYWRQGTQVTVSS | low polyreactivity

From the nanobody polyreactivity screen of Harvey et al. (2022)
